Data as given in the Immune Epitope Database (IEDB).

Experiments:
HLA-A*03:01 [1] = assay: IEDB peptide-MHC binding, purified MHC/competitive/fluorescence; filed as Kd, often an IC50 or EC50 that approximates it; ≥ and ≤ were set here for values at or beyond the usual limits of such assays; conditions: source organism: Human immunodeficiency virus 1
HLA-A*26:02 = assay: as above; conditions: source organism: Human immunodeficiency virus 1
HLA-A*11:01 [2] = assay: as above; conditions: source organism: Human immunodeficiency virus 1
HLA-A*26:03 = assay: as above; conditions: source organism: Human immunodeficiency virus 1
HLA-B*08:02 = assay: as above; conditions: source organism: Human immunodeficiency virus 1
HLA-A*68:02 [3] = assay: as above; conditions: source organism: Human immunodeficiency virus 1
HLA-A*01:01 [4] = assay: as above; conditions: source organism: Human immunodeficiency virus 1
HLA-B*15:17 = assay: as above; conditions: source organism: Human immunodeficiency virus 1
HLA-A*02:01 = assay: as above; conditions: source organism: Human immunodeficiency virus 1
HLA-A*69:01 = assay: as above; conditions: source organism: Human immunodeficiency virus 1
HLA-A*02:03 [5] = assay: as above; conditions: source organism: Human immunodeficiency virus 1
HLA-A*02:06 [6] = assay: as above; conditions: source organism: Human immunodeficiency virus 1
HLA-A*31:01 [7] = assay: as above; conditions: source organism: Human immunodeficiency virus 1
HLA-A*30:01 = assay: as above; conditions: source organism: Human immunodeficiency virus 1
HLA-B*44:02 = assay: IEDB peptide-MHC binding, purified MHC/competitive/radioactivity; filed as Kd, often an IC50 or EC50 that approximates it; ≥ and ≤ were set here for values at or beyond the usual limits of such assays; conditions: source organism: Hepatitis C virus (isolate 1)
HLA-A*03:01 [8] = assay: as above; conditions: source organism: Hepatitis C virus (isolate 1)
HLA-A*02:02 [9] = assay: as above; conditions: source organism: Hepatitis C virus (isolate 1)
HLA-A*33:01 = assay: as above; conditions: source organism: Hepatitis C virus (isolate 1)
HLA-B*08:01 = assay: as above; conditions: source organism: Hepatitis C virus (isolate 1)
HLA-B*07:02 [10] = assay: as above; conditions: source organism: Hepatitis C virus (isolate 1)
HLA-A*11:01 [11] = assay: as above; conditions: source organism: Hepatitis C virus (isolate 1)
HLA-A*68:02 [12] = assay: as above; conditions: source organism: Hepatitis C virus (isolate 1)
HLA-A*68:01 = assay: as above; conditions: source organism: Hepatitis C virus (isolate 1)
HLA-A*01:01 [13] = assay: as above; conditions: source organism: Hepatitis C virus (isolate 1)
HLA-B*40:02 = assay: as above; conditions: source organism: Hepatitis C virus (isolate 1)
HLA-B*54:01 = assay: as above; conditions: source organism: Hepatitis C virus (isolate 1)
HLA-B*40:01 [14] = assay: as above; conditions: source organism: Hepatitis C virus (isolate 1)
HLA-A*02:03 [15] = assay: as above; conditions: source organism: Hepatitis C virus (isolate 1)
HLA-B*51:01 [16] = assay: as above; conditions: source organism: Hepatitis C virus (isolate 1)
HLA-A*02:06 [17] = assay: as above; conditions: source organism: Hepatitis C virus (isolate 1)
HLA-B*18:01 = assay: as above; conditions: source organism: Hepatitis C virus (isolate 1)
HLA-A*31:01 [18] = assay: as above; conditions: source organism: Hepatitis C virus (isolate 1)
HLA-B*35:01 = assay: as above; conditions: source organism: Hepatitis C virus (isolate 1)
HLA-B*44:03 = assay: as above; conditions: source organism: Hepatitis C virus (isolate 1)
HLA-B*53:01 = assay: as above; conditions: source organism: Hepatitis C virus (isolate 1)
HLA-A*02:02 [19] = assay: IEDB peptide-MHC binding, purified MHC/competitive/radioactivity; ≥ and ≤ were set here for values at or beyond the usual limits of such assays; conditions: source organism: Hepatitis C virus (isolate H77)
HLA-A*02:03 [20] = assay: as above; conditions: source organism: Hepatitis C virus (isolate H77)
HLA-A*02:06 [21] = assay: as above; conditions: source organism: Hepatitis C virus (isolate H77)
HLA-B*07:02 [22] = assay: IEDB peptide-MHC binding, purified MHC/direct/fluorescence; filed as Kd, often an IC50 or EC50 that approximates it; ≥ and ≤ were set here for values at or beyond the usual limits of such assays; conditions: source organism: Orthohantavirus tulaense
HLA-A*01:01 [23] = assay: as above; conditions: source organism: Orthohantavirus andesense
HLA-A*25:01 = assay: as above; conditions: source organism: Orthohantavirus tulaense
HLA-B*40:01 [24] = assay: as above; conditions: source organism: Orthohantavirus tulaense
HLA-A*80:01 = assay: as above; conditions: source organism: Orthohantavirus andesense
HLA-A*29:02 = assay: as above; conditions: source organism: Orthohantavirus tulaense
HLA-B*51:01 [25] = assay: as above; conditions: source organism: Orthohantavirus tulaense

Sequence: VLYCVHQEI
- Kd (HLA-A*03:01 [1]): ≥ 20 µM
- Kd (HLA-A*26:02): ≥ 20 µM
- Kd (HLA-A*11:01 [2]): ≥ 20 µM
- Kd (HLA-A*26:03): ≥ 20 µM
- Kd (HLA-B*08:02): ≥ 20 µM
- Kd (HLA-A*68:02 [3]): 0.233 µM
- Kd (HLA-A*01:01 [4]): ≥ 20 µM
- Kd (HLA-B*15:17): 0.345 µM
- Kd (HLA-A*02:01): 0.007 µM
- Kd (HLA-A*69:01): 0.824 µM
- Kd (HLA-A*02:03 [5]): 0.0088 µM
- Kd (HLA-A*02:06 [6]): 0.00405 µM
- Kd (HLA-A*31:01 [7]): ≥ 20 µM
- Kd (HLA-A*30:01): 12.3 µM

Sequence: KLVALGINAV
- Kd (HLA-B*44:02): ≥ 70.2 µM
- Kd (HLA-A*03:01 [8]): 16.6 µM
- Kd (HLA-A*02:02 [9]): 0.0827 µM
- Kd (HLA-A*33:01): ≥ 70 µM
- Kd (HLA-B*08:01): ≥ 70 µM
- Kd (HLA-B*07:02 [10]): 2.17 µM
- Kd (HLA-A*11:01 [11]): ≥ 69.8 µM
- Kd (HLA-A*68:02 [12]): 12.8 µM
- Kd (HLA-A*68:01): ≥ 70.2 µM
- Kd (HLA-A*01:01 [13]): 9.01 µM
- Kd (HLA-B*40:02): ≥ 70.8 µM
- Kd (HLA-B*54:01): 19.2 µM
- Kd (HLA-B*40:01 [14]): ≥ 69.6 µM
- Kd (HLA-A*02:03 [15]): 0.0111 µM
- Kd (HLA-B*51:01 [16]): ≥ 47 µM
- Kd (HLA-A*02:06 [17]): 0.00394 µM
- Kd (HLA-B*18:01): ≥ 70.5 µM
- Kd (HLA-A*31:01 [18]): 13.6 µM
- Kd (HLA-B*35:01): ≥ 69.9 µM
- Kd (HLA-B*44:03): ≥ 70.1 µM
- Kd (HLA-B*53:01): ≥ 69.9 µM
- IC50 (HLA-A*02:02 [19]): 0.015 µM
- IC50 (HLA-A*02:03 [20]): 0.075 µM
- IC50 (HLA-A*02:06 [21]): 0.0037 µM

Sequence: ATATWFQYY
- Kd (HLA-B*07:02 [22]): ≥ 20 µM
- Kd (HLA-A*01:01 [23]): 0.0163 µM
- Kd (HLA-A*25:01): ≥ 20 µM
- Kd (HLA-B*40:01 [24]): ≥ 20 µM
- Kd (HLA-A*80:01): 0.0142 µM
- Kd (HLA-A*29:02): ≤ 0.001 µM
- Kd (HLA-B*51:01 [25]): ≥ 20 µM
